One series relates to A375P cells. The series can be described thus: Cellular uptake by ImageXpress Micro epifluorescence microscopy. The series is classed as cell-based, human. Particulars: FITC-labeled peptides, 4 h; data not shown. As for the experimental part:
Confocal Microscopy: A375P cells were plated in chambered coverglass (1.5×10^4 cells/well) and cultured as above. […] Cells were washed, stained with MitoTracker Red (Thermo), Hoescht 33342, and imaged live. Confocal images were collected with a Yokogawa CSU-X1 spinning disk confocal (Andor Technology) mounted on a Nikon Ti-E inverted microscope (Nikon Instruments). Images were acquired using a 100×1.4 NA Plan Apo objective lens with an Orca ER CCD camera (Hamamatsu Photonics) and 488 nm laser. Acquisition parameters, shutters, filter positions and focus were controlled by Andor iQ software (Andor Technology). […] Data were collected for five sites per well at 20× magnification, with each treatment performed in triplicate, and then analyzed and quantified using MetaXpress software. […] A custom module in MetaXpress was applied to incrementally recede the CMDR image mask from the cellular border, further restricting the analyzed FITC signal to internalized peptide. The measurement of Total Internalized Fluorescence Intensity (TIFI) represents the level of absolute fluorescence detected per cell, per peptide construct. Maximum and minimum thresholding was utilized to exclude FITC and Cy5 outliers that were much larger and brighter than average, and total intensity and average intensity per cell thresholds were set such that vehicle-treated cells scored negative by the analysis.

In series [1] the test system is mouse embryonic fibroblasts (MEFs). Described as above. The series is classed as cell-based. Particulars: FITC-labeled peptides, 4 h; data not shown.
A further series concerns A375P melanoma cells. As to the kind of experiment: Cell viability (CellTiter-Glo). The series is classed as cell-based, human. Particulars: 40 μM, over time. As for the experimental part:
Cell Viability, LDH Release, and Caspase-3/7 Activation Assays: Cancer cells were cultured using their standard culture media containing 10% FBS and penicillin/streptomycin (A375P: DMEM; SK-MEL-2, SK-MEL-28 and MCF-7: EMEM: A549, H929: RPMI). […] Cell viability and caspase 3/7 activation was measured using CellTiter-Glo and Caspase-Glo 3/7 chemiluminescence reagents (Promega), respectively, and luminescence detected by a microplate reader (Spectramax M5, Molecular Devices). LDH release was quantified after 30 min peptide incubation by plate centrifugation at 1500 rpm for 5 min at 4° C., transfer of 100 μL cell culture media to a clear plate (Corning), incubation with 100 μL LDH reagent (Roche) for 30 min while shaking, and measurement of absorbance at 490 nm on a Spectramax M5 microplate reader. Mitochondrial Cytochrme c Release and Biotinylation Assays: A375P cells were plated in 6-well Corning plates (3×10^5 cells/well) and cultured as above. […] Briefly, pelleted cells were resuspended at 1×10^7 cells/mL in permeabilization buffer (20 mM HEPES/KOH pH 7.5, 250 mM sucrose, 50 mM KCl, 2.5 mM MgCl2) supplemented with 0.025% digitonin and protease inhibitors, followed by incubation on ice for 10 min and centrifugation at 13,000 g.
For orientation: ATP-based viability assays read luminescence as a measure of living cells.

For series [2], the system named is BFL-1ΔC. As to the kind of experiment: Covalent conjugation assay of warhead-bearing SAHBs. The series is classed as binding, human. As for the experimental part:
For warhead-bearing SAHBs, His-BFL-1ΔC C4S/C19S protein was pretreated with 10 mM DTT in 50 mM Tris pH 8.0, 100 mM NaCl for 30 min at RT (final volume, 9.5 μL), and then combined with a 10:1 molar ratio of NOXA SAHBA or BIM SAHBA peptides bearing warheads 1-8 (final volume, 10 μL) for an additional 2 h incubation at RT. Processing for gel electrophoresis and Coomassie staining was performed as above.

A further series has as its target T1, MCL-1ΔNΔC (Homo sapiens, UniProt Q07820).
T1 construct: MCL-1ΔNΔC (aa 170-327) and BCL-XLΔC (aa 1-212) constructs were cloned into pGEX-4T-1; GST (N, cleaved yes); made in house; host or cells: Escherichia coli BL21(DE3)
The series is described as above. The series is classed as binding. Here is the method: Processing for gel electrophoresis and Coomassie staining was performed as above.

The target in the next series is T2, BCL-XLΔC (Homo sapiens, UniProt Q07817).
T2 construct: MCL-1ΔNΔC (aa 170-327) and BCL-XLΔC (aa 1-212) constructs were cloned into pGEX-4T-1; GST (N, cleaved yes); made in house; host or cells: Escherichia coli BL21(DE3)
T2 sequence (Q07817 1-212, stated change not applied): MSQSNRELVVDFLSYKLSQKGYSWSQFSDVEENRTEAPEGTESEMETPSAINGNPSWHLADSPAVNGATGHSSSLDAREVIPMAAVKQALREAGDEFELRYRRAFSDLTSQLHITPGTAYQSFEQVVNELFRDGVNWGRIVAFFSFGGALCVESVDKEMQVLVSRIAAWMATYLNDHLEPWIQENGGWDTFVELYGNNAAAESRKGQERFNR
The description is as above. The series is classed as binding.

The next series has as its target T3, GST-MCL-1ΔNΔC (Homo sapiens, UniProt Q07820).
T3 construct: MCL-1ΔNΔC (aa 170-327) and BCL-XLΔC (aa 1-212) constructs were cloned into pGEX-4T-1; made in house; host or cells: Escherichia coli BL21(DE3)
As to the kind of experiment: Streptavidin pull-down from anti-apoptotic protein mixture. As to conditions: 1:1:1:1 mixture, 1 μM each, biotinylated SAHB. The series is classed as binding. Here is the method: (§1) Streptavidin Pull-down: Recombinant His-BFL-1ΔC, BCL-XLΔC (tagless) and GST-MCL-1ΔNΔC (1 μM each) were combined and reduced with 3 mM DTT in PBS for 30 min at RT, and then incubated with 1 μM biotinylated SAHBA, SAHBA-3 or vehicle for 4 h at RT. The mixtures were then combined with PBS-washed high-capacity SA agarose (Thermo Fisher Pierce) and incubated with rotation for 2 h at RT. The beads were centrifuged at 3000 rpm, washed twice with NP-40 lysis buffer (1% NP40, 50 mM Tris pH 8.0, 100 mM NaCl, 2.5 mM MgCl2), once with PBS, and then bound protein eluted by boiling in 10% SDS containing 10 mg/mL biotin. Inputs (10%) and eluates were electrophoresed on a 12% Bis-Tris gel and then subjected to silver stain and imaging.

Another series deals with T4, His-BFL-1ΔC (Homo sapiens, UniProt Q16548).
T4 construct: cDNA encoding BFL-1ΔC (aa 1-153) was cloned into the pET19b expression vector; made in house; host or cells: Escherichia coli BL21(DE3) LOBSTR
T4 sequence (Q16548 1-153): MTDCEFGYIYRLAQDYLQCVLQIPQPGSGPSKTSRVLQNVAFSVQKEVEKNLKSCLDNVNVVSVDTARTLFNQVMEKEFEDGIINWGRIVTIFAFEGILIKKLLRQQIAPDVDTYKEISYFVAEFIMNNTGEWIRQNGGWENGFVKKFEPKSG
Described as above. Particulars: 1:1:1:1 mixture, 1 μM each, biotinylated SAHB; relative to SAHB without warhead. The series is classed as binding. Here is the method: as §1

Series [3] addresses T5, BFL-1ΔC (Homo sapiens, UniProt Q16548).
T5 construct: cDNA encoding BFL-1ΔC (aa 1-153) was cloned into the pET19b expression vector; made in house; host or cells: Escherichia coli BL21(DE3) LOBSTR
T5 sequence (Q16548 1-153): T4 sequence (Q16548 1-153)
The series can be described thus: Liposomal release assay with SAHBA-3/BFL-1ΔC conjugates. As to conditions: BFL-1ΔC covalently conjugated to the peptide, 1.5 μM. The series is classed as biochemical. Here is the method:
as §1, with “Inputs (10%) and eluates were electrophoresed on a 12% Bis-Tris gel and then subjected to silver stain and imaging.” left out
Large unilamellar vesicles (LUVs) with encapsulated ANTS and DPX were generated and purified as described (Leshchiner et al., 2013; Lovell et al., 2008). The indicated combinations of BAX (400 nM), tBID (40 nM), and BFL-1ΔC or SAHBA-3/BFL-1ΔC conjugates (1.5 μM), were added to liposomes (5 μL) in 384 well plates (final volume, 30 μL), and released fluorophore was measured over 120 min using an M1000 Infinite plate reader (Tecan) with excitation and emission wavelengths of 355 nm and 520 nm, respectively. […] Percent ANTS/DPX release was calculated as [(F−F0)/(F100−F0)]×100, where F0 is baseline fluorescence at time 0, F is the fluorescence recorded for each time point, and F100 is the maximum amount of ANTS/DPX release based on liposomal treatment with 1% Triton X-100.

A further series addresses T6, HA-BFL-1ΔC C4S/C19S (Homo sapiens, UniProt Q16548, C19S/C4S).
T6 construct: cDNA encoding BFL-1ΔC (aa 1-153) was cloned into the pET19b expression vector; expressed in transfected cells; host or cells: 293T
T6 sequence (Q16548 1-153 C4S/C19S): T4 sequence (Q16548 1-153) with C4S, C19S
The series can be described thus: Crosslinking in lysates of transfected 293T cells. The series is classed as binding. Particulars: 293T lysate. As for the experimental part: 293T cells were maintained in DMEM containing 10% FBS and penicillin/streptomycin, and transfections performed with 2 μg pCMV plasmid containing HA-BFL-1ΔC C4S/C19S using X-tremeGENE 9 (Roche). For lysate experiments, cells were trypsinized 24 hours post-transfection, washed with PBS, and lysed by incubation with 1% CHAPS lysis buffer (150 mM NaCl, 50 mM Tris pH 7.4, 100 mM DTT). Protein concentration of the soluble fraction was measured using a BCA kit according to manufacturer's instructions (Thermo Scientific). […] Samples were then boiled in LDS buffer and subjected to western analysis using 1:1000 dilutions of HA (Sigma-Aldrich. #12CA5) and biotin (Abcam, #53494) antibodies. To evaluate the capacity of biotinylated SAHBs to compete with tBID for interactions with BFL-1 and MCL-1, 293T cells were transfected with either HA-BFL-1ΔC C4S/C19S or FLAG-MCL-1 in the p3XFLAG-CMV-10 vector (Sigma) as above. After 24 h, cells were trypsinized, washed with PBS, lysed in 1% CHAPS buffer, and the supernatant collected for protein concentration determination by BCA kit. […] The mixtures were then subjected to HA or FLAG (Sigma-Aldrich, F7425) immunoprecipitation, followed by western analysis using 1:1000 dilutions of HA, FLAG, biotin, and BID (Santa Cruz sc-11423) antibodies. […] Cells were harvested and lysed as above, and incubated overnight with anti-HA agarose beads (Pierce). […]

Where a chain is given by its changes, count along the chain named. Starred links: 1 amine or outer side, 2 acyl side, 3 side chain; linkers in the order of their positions; H or OH if unused. Positions of bridges follow the written chain, without caps; N, C: chain ends. Non-standard residues stand in square brackets, D forms with d. Residues, ends and D or L forms follow the SMILES beside them. No end group written: not given here. *: point of attachment. Nip(3R) = O=C([C@@H]1CCCN([*:1])C1)[*:2]; S5 = C=CCCC[C@](C)(N)C(=O)O; code J = not defined here; Acryloyl = C=CC(=O)*

T3 sequence (Q07820 170-327, stated change not applied): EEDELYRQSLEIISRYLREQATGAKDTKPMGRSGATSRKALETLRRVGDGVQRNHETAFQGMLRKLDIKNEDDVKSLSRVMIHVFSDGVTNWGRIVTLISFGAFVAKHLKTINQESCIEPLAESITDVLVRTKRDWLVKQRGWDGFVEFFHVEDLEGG
T1 sequence (Q07820 170-327, stated change not applied): as above

With `C=CC(=O)N1CCC[C@@H](C(=O)N[C@H](C(=O)N[C@@H](C)C(=O)N[C@@H](CCC(N)=O)C(=O)N[C@@H](CCC(=O)O)C(=O)N[C@@H](CC(C)C)C(=O)N[C@@H](CCCNC(=N)N)C(=O)N[C@@]2(C)CCCC=CCCC[C@@](C)(C(=O)N[C@@H](Cc3ccccc3)C(=O)N[C@@H](CC(N)=O)C(=O)N[C@@H](C)C(=O)N[C@@H](Cc3ccc(O)cc3)C(=O)N[C@@H](Cc3ccc(O)cc3)C(=O)N[C@@H](C)C(=O)N[C@@H](CCCNC(=N)N)C(=O)N[C@@H](CCCNC(=N)N)C(N)=O)NC(=O)[C@H](CC(=O)O)NC(=O)CNC(=O)[C@H]([C@@H](C)CC)NC2=O)[C@@H](C)CC)C1` [BIM SAHBA-3] (Acryloyl-[Nip(3R)]IAQELR[S5]IGD[S5]FNAYYARR-NH2; staple 8-12; N-terminus and C-terminus assumed), the cellular uptake entry (with A375P cells; in series [1]) was “equivalent cellular uptake” each time. In the series on A375P melanoma cells, the “cytotoxicity compared to BIM SAHBA1” value is on record as “significant enhancement in cytotoxicity over time”.

Take “NOXA SAHBA-3: NOXA SAHBA (aa 21-43) capped at L21 with D-nipecotic acid acrylamide warhead 3; JEVESATQLRXFGDXLNFRQKLL (SEQ ID NO:24) ([code J]EVESATQLR[S5]FGD[S5]LNFRQKLL; staple 11-15; reading uncertain)”: the “reactivity with BFL-1 constructs WT, C4S/C19S, C55S, C4S/C19S/C55S” value in the series with BFL-1ΔC [2] was “exclusive reactivity with the WT and BFL-1 C4S/C19S constructs”. The “reactivity with MCL-1ΔNΔC” value in the series with MCL-1ΔNΔC is “did not react”. The “reactivity with BCL-XLΔC” value with BCL-XLΔC is listed as “did not react”. The “MCL-1ΔNΔC engagement in SA pull-down” value with GST-MCL-1ΔNΔC is listed as “relatively less”. The “BFL-1ΔC engagement in SA pull-down” value with His-BFL-1ΔC was “notably more”. In addition, the “BFL-1ΔC suppression of tBID-triggered BAX-mediated liposomal release” value in the series with BFL-1ΔC [3] was “the inhibitory function of BFL-1 was lost”. For the same molecule, in the series with HA-BFL-1ΔC C4S/C19S, the “reactivity with other lysate proteins (biotin western)” value is “little to no non-specific reactivity”. The “molecular weight shift of HA-BFL-1ΔC C4S/C19S (anti-HA western)” value with HA-BFL-1ΔC C4S/C19S (biotinylated peptide 10 μM, 2 h) is listed as “prominent molecular weight shifts”.

These data come from patent US11078246B2, “Peptides binding to Bfl-1” (Dana-Farber Cancer Institute, Inc., priority 2015, dated 2021).
